Results published in a protein production outcome set (Wang et al. 2014).

Assay: label from the status in PepcDB records
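Note: failed if final PepcDB status was selected cloned or expressed and not failed if soluble or beyond.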

Sequence	protein production
MISSKNGAAMISRPVFLSDRVDEVFSRKLDLSVSSSSSSSLLQQFNKTHEGDDDARLALAHQLYKGGDFKQALEHSNMVYQRNPLRTDNLLLIGAIYYQLQEYDMCIARNEEALRIQPQFAECYGNMANAWKEKGDTDRAIRYYLIAIELRPNFADAWSNLASAYMRKGRLSEATQCCQQALSLNPLLVDAHSNLGNLMKAQGLIHEAYSCYLEAVRIQPTFAIAWSNLAGLFMESGDLNRALQYYKEAVKLKPAFPDAYLNLGNVYKALGRPTEAIMCYQHALQMRPNSAMAFGNIASIYYEQGQLDLAIRHYKQALSRDPRFLEAYNNLGNALKDIGRVDEAVRCYNQCLALQPNHPQAMANLGNIYMEWNMMGPASSLFKATLAVTTGLSAPFNNLAIIYKQQGNYSDAISCYNEVLRIDPLAADALVNRGNTYKEIGRVTEAIQDYMHAINFRPTMAEAHANLASAYKDSGHVEAAITSYKQALLLRPDFPEATCNLLHTLQCVCCWEDRSKMFAEVESIIRRQINMSVLPSVQPFHAIAYPIDPILALEISRKYAAHCSIIASRFGLPPFTHPAGLPVKREGGFKRLRIGYVSSDFGNHPLSHLMGSVFGMHNRENVEVFCYALSANDNTEWRQRIQSEAEHFLDVSAMSSDAIAKIINQDKIQILINLNGYTKGARNEIFAMQPAPIQVSYMGFPGTTGATYIDYLVTDEFVSPLQYAHIYSEKLVHLPHCYFVNDYKQKNQDVLDPNSKPKRSDYGLPEDKFIFACFNQLYKMDPEIVNTWCNILKRVPNSALWLLRFPAAGEMRFRTYAAAQGVQPDQIIFTDVAMKSEHIRRSVLADVILDTPLCNGHTTGTDVLWAGVPMITLPLEKMATRVAGSLCLATGLGHGMIVNSLEEYEEKAVSLALNKPKLQALTKELRASRLTCPLFDTMRWVKNLERSYFKMWNLHCSGQQPQHFKVLENDLEFPHDR	failed
MISYIQTKIHHINFLHDSLFKNAFFLMLSSISTAGFGFIFWFLAAKFYSASDVGIATGIMSSMTLIVNLSRFGLDYSIIRFFPTHDKCKVFSTSTVISTLIALIFGLIFISGINSFSPELSFLRSPLYTLFYFISLTSSSVIFMAGIFFVAIREAEFQLYLNLIVGSRVLFVILFISLGAIGIFYAVGASFFIAFLISLVLILKSGTDLKLKIDRKFLTDSFNFSAGNFLTGLFMTVPNTLLPIMILNMHLVEQAAYYYIVFGIVSLLFMIPESISTSLFVEGSNGQSLKKTVIQSLVIIFLLLTPIALFFYLYGSLILGFIGQDYVAGGSGVFRLMIFASFFVVVNNVYFAIKRIQKDTKEITLLSGIIFILLIGLAFLLIPVLGIEGIGYAWIISYGTGALIILIQVFRKARFQNLLIKAM	failed
MITAFVLIRPRGNRVQALGEAIAELPQVAEVYSVTGPYDLVALVRLKDVEELDDVVTQGILSLEGVERTETLLAFRAYPRRLLDQGFALGQG	not failed
MITFIIHSVSAETASESLLSKLAEAKDYLRIQPSVSSRILKKHLANIGQLTINDQLSWHQNLLRASIALNDLNQVEKTVKVMLSYPELEKKTDKFVSLLSSLGIFLRRTGHPNESILLFNCGLEQPIKNGKQKISLLISKGSSLSSLNKYSQAKTTYAQALQLAKQQNSEVLISAIYNTLGIMALKQGNYTLAKEYLVNALQLSQKISRRSGQIVAGLQLLRLSILSDEPMLYDRLHYRISRLTLVSESEVRHAYLFWLEKAHKASKGNKLSAQEQDELLSKLDQIKPISVSLYNQLVETLAEPMGITSLALINESSEYQGDLLNNIHQCKNIE	failed
MITNAFNEYKNEYAFDNVYGHLIEILKRNLDISTESGVVHLDIGCGYGAIAEHITGEVGRVYVGIDANKSGLKSLKDRGFETHEHFLESQEDALSFFERVIGDRKLGSISMLDTLEHLPNGLSILKAIATLASKHSAMVAISVPNIQHRDIGFKLALGSIAYTDAGLLDHTHVMMYDYDHLDRVLRHAGLRICDQNHVRVNHSDQFFPRDHPVLQNATTIRTFLKYVRANVNDQDQINQFVVAALPCEPITGPTFEAVRDVDRPFLSIVTRTQGKRIHTLVEYFTCLAGQVCRDFEVFVVGHRLSLERQIAIEQVIEDLPLWLRDKTKLIRVDHGNRTHPLNVGFAQANGRYIAIHDDDDIPMGHWVDSFRKLAIENDGALLRCVSSLQHVETVSLRGRDGVRSIGKTGPFPSEFDFIQHLSGNYSPNNTLAFPRGVFHHLNMRFDENLTTTEDWDYIMRVASVVGVASSPEITGTYQWWEKGNSLAMHTDNEWALNKAWIQEKLDARPILIPAGTVRKILSLWEHANNVATQLDAVSHRNAIIEGQLGAMSQYDIDVQAQMKAISDHVNFLKSEIDRNRNEAVDQQYLLREIGDIIDSTSWKLSAPMRWPKRILGARSSRLTDHLGSSVQQLQETKRRLLSSRSWRATRPMRAVARLFKVHPI	failed
MITQRQNDILNLIVELFTQTHEPVGSKALQRTIDSSSATIRNDMAKLEKLGLLEKAHTSSGRMPSPAGFKYFVEHSLRLDSIDEQDIYHVIKAFDFEAFKLEDMLQKASHILSEMTGYTSVILDVEPARQRLTGFDVVQLSNHDALAVMTLDESKPVTVQFAIPRNFLTRDLIAFKAIVEERLLDGSVMDIHYKLRTEIPQIVQKYFVTTDNVLQLFDYVFSELFLETVFVAGKVNSLTYSDLSTYQFLDNEQQVAISLRQSLKEGEMASVQVADSQEAALADVSVLTHKFLIPYRGFGLLSLIGPIDMDYRRSVSLVNIIGKVLAAKLGDYYRYLNSNHYEVH	failed
MITQVNQLDELQLKDLKTLRAECKKNDGSIPNLYIHILKQHRSLPTSFLYYQNGALIGFLSIYFFYDDAVEVAVLVSPQYRRQGIAKQLIKEALPLIKSQNYFNLIFSCPSRLNDNWLTSKGFTYLHSEYFMERDDLNPILDYIR	not failed
MITRLVLATAGAAVALGLPADVRAYEYEQEATTKLMTDMIVDLGGHDTVRRNSGKTVRCGDGGTRRVSIVRRGATTTYRGDYRNCRERGLTRDGFYEIVFKGDEIVSSTSKRSVNGELFDAAMAGNAAGVRKLIRARADVNYTESVDRTEGGTIDGVSPLMVATMAGSLDTVKLLVANGAWVNYLNSMAVNALWIAAHNGHPEIVRYLAGRGAYLNNSNVEDVTPLMAAAMNGHLAVVKFLVGAKADINAVHRDGDTALMFALAQNRTDIARFLIDAGADVAVRNRHGVTALLIAVAEGNEEIVRALLERKADVSVRTADGKSALDVARARGMDGIAKLLEAAGSY	failed
MIVASRSPLPLAPPMLFPASDDDVPFDDAPRILLFTGKGGTGKTTCAAATAQHAARQGHKTLVLSSDPAHSLADALDQELGPEAREVRDRLFAQEVDLYYSMKKHWGHMRELMLTVFRWQGVDQIAAEELAALPGMNEGSVLLWLEEALREADYDLIVVDSAPTGETLTLLTLPQVTQWWLAKAFPFQKMAVKSLGFGVRKATGIPLDKGYEELEVIFEKLERVQQVLATPSTTSIRLVTNPEKMVIEEARRAFTYLQLYGYGVDSVVVNRVLPEEEVPADSFFEGYVESQREYLEEIEQSFRPLPILQVPHLGEEVFGAERLGRIGDAMYAERNPTDVFYDEPTFTVEEDGDAYVLNLRLAFATEADVDVRQLGDQLVVQVANQRSNVILPNFLNYYHMTNAALEEGWLRVRFTPDGEASSN	failed
MIVAVESLDTSKKRKLHAEESDLLPLPKHFCSEHQASLVNSSCPSSVIDYAECSYAMENTKTSDEASSSASFTGPSLYMFKDSIYSTGSSSSGYAATSSIEQCFSKVDHKTQEDTQDFTHMEFIYHDSEFAVEDLQEVLNPVESYILSSARWSVSNQDSKEATTKPTIDQEFEQYFSTLMM	failed
MIVFKAENLSVGYNGVKAVSNINFSAKQGEIICLLGPNGAGKTTIIRTLSGLLPPIEGEIHINGKSLSTINKKLLAQTLSVVLTEKPSFDVMTAFDVVSLGRFPHTGFFGTITKEHEIKVVEALKTVGALNLIDKYFHILSDGERQKVMLARALVQEPQIIILDEPTTHLDINHKIELLNTLKNLSRTAKLTVILSLHEIDLALKYCDKVMLVENKKVLSFGSPETTVNGETINKLYGIKNASFNPITSSIELKNSEKSNIYVIGGCGFGTPIYRLLSKYNLGFSTGILHENDIDYETAKTMSLRLQSEKPFQKISKISFEKALAAVASSDIIIDSGFPIGETNEKNLNLLNYAVEKNKRVITFRKYFNSTMSYCSNKDALIDFILRLEHHHHHH	failed
MIVIEKLTVDMARGVENNLEGLQIFVAVAEAGGFTAAAERLGMTKANVSLQVGRLEAQLGATLFTRTTRRVKLTEAGQALYLDAQPALAALRDALLQAGHGAAELSGTLRLTAPVSHMAESVAPAATQFIRRHPGLQLELHAIDRMVDLVAEGMDLAIRLGTLRDSSLRALKLGEFAQQLVASPAYLRERGMPAHPGELAGHDWVALTLLKTPLTWRFAGAGGAEETVRMRARIKVDSAASLRSLLLAGAGMSVLDSFSVQEDLRQGRLIHLLPQWTLPKGGVYAVFPPGRHAPAAARAFVEFYRVLLARPV	failed
MIVIYFFSTKSQQFFAYVWAIFPVIAFFLVSFYTLDFLFSPSYLIMVPVFTIMFKINYKKDYSFVALLKMSIRQFVISFLAFIASSSFSWSIILNSSVTFLIVYLFYSSATPMRYHSYLMMFTFCQLIQVKGNTFLMQSQVVAFLIGLFLLALTLNAWWQTGLRQLTSLKSRGHVRFFKSIQLNMKQQKLAVINFWHDLQQIFFGITSFKQFLESPDERVQRFRLAIRMSFTITLSFILMWSVGGIKIIWIPMNVFLLLHPVKAEMNTRIKTRFWGTLLGCFLSLFVVNWLQLPLTHLIVSSLIGIFVYALKPGTVLQVTMATIFGLCLATISLRGMYAAELRVSFVLLAIFVVCLIDLGLFVYQRILRF	failed
MIVKCPICDGTGKKVVKYKTCPVCEGTGFIDEFSPKQHMKRVSKRATYDLDYGEIPCPKCKGTGKVPVYAKCDFCGGSGKVVKCDRCGAIIGKYPDFKDRTLCDKCLKEEEERKKGLRNVYVFDELATFYDVEPGKFYKGVVTRIEKYGAFINLNEQVRGLLRPRDMISLRLENLNVGDEIIVQAIDVRPEKREIDFKYIPLTTYDLVKYEKEVPLSQIKDISQNLVEMRDQVVHIRGEVVQIVQTPGPTVFTITDGTDFAWVAALEIAGLRAHPDVKVGDIVDVIGRVTIRDGRLQIERIKLQKLEGDEAEEIRKKIEEEIDRRAEPAKDIPFLVKSEVLERLRPKMADVAKRIRKAVLDGRPIIIRHHADTDGYCGGIALEKAILPIIDKFAIDVDAIWHFFKRRPSKAPFYELEDVTKDLVFSIEDALKFGQKLPLIVLIDNGSTDEDIPAISKAKAYGIEVIVIDHHFPGEVVDGKVEVDDYVDAHVNPYLVGGDSNLTAGVLGTEIARMINPDVEDEIKHIPGIAVVGDHAKGEEAEQYVKIALDRLNELSKKYGKGRTYDREYLEKIALCMDFEAFYLRFMDGKGIVDDILATNIKEFGRHEELIDILYEQAMKMVERQMKAVIPALKTEFLENGIILNTLDVEKYAHKFTFPAPGKTTGFAHDYIVQKYGEDKPIITLSYGPDFGVVRATDAVHEKYNFNLNLIVEQLMEEIPEASLDGGGHECAGSLKFVEGLRDKVIGRFIEIIKNMKPKEQ	failed
MIVMSKNVDEAISRKEEKCIMSFIPNMITIANFVCGLLAIYAVFVHDIYLGAVFIITGMLFDFFDGMVARKLDSVSEIGGELDSFADLVTFGVAPSILAYSASLKDLQSIGMICALTYSICGMLRLARFNTQQSKLPTFIGMPIPFAAMCLLILCFLKNPVSVAFGTCVLAYLMVSKIKFPHFKKDIAESLKPGRLD	failed
MIWRGEKLISNKVKIVRLLNKSKKSLLRGIFSRTTVIAILLILQLLFLLASYSWLEQYRVWLATVEHILTIGAVLYLVNSEMDALSRVTWLILVMIAPLLGAMFLMYTKFDWGYRGLKQRLETLIDESQIYLEDDPETLNQLKSSTSTTYHLVQYFEKAHGNFPVYRNTDVTFLPTGEAFFEKMKEELLKAKKYIFLEFFIIDEGIMWGEILSILEQKVEEGVEVRILYDGMIEITKLSFDYTKRLEKIGIKAKAFSPISPFISTYYNYRDHRKIVVIDGVVGMTGGVNLADEYINHIELFGHWKDSGIMLKGKAVDSFLLLFLQMWSITEEKMLVAPYLGVHDDLVENEGYVIPYGDSPLDTDKVGENVYIDILNHAREYVYIMTPYLILDSELEHAIQFAAERGVDVRIIMPGIPDKPIPYALAKTYYQALTKSGVKIYEYTLGFVHSKIFLSDNTKAVVGTINLDYRSLYHHFECAVYLYKVDAIQDIYRDYMDTLNKSRLVSLKDINNIPKFQKVIGIVTKTIAPLL	failed
